A short description of one series: ζ-potential (Zetasizer). In kind it is physicochemical. The settings on record: Malvern Zetasizer Nano ZS90; mean ± SD. On the procedure: (§1) The average molecular weight (Mw) and polydispersity (PDI) of the HPMA copolymer conjugates were determined by gel permeation chromatography (GPC) on an AKTA purifier equipment with a Superose 6 10/300 GL analytical column (GE Healthcare, USA) and a differential refraction detector (KNAUER, 2300, Germany). Hydrodynamic sizes and zeta potentials were determined using a Malvern Zetasizer Nano ZS90 equipment (Malvern Instruments Ltd, Malvern, UK). The contents of BS, CM1, and CM2 were determined using a bicinchoninic acid (BCA) protein assay. The PS concentration was determined by ultraviolet-visible (UV-Vis) spectroscopy at its characteristic absorbance peak (660 nm).

Series [1] is described as follows: Hydrodynamic size / size distribution by dynamic light scattering. The settings on record: Malvern Zetasizer Nano ZS90, mean ± SD. The class given is physicochemical. The method, then: as §1
To investigate the coiled-coil assembly, varying CM1-to-CM2 ratios (3:1, 1:1, and 1:3) of P-BS-CM1 and P-CM2 were mixed in 10 mM PBS (pH 7.4) at 25 °C for 10 min. The total polymer concentration was kept constant at 10 mg/mL. Circular dichroism spectra, size distribution, and rheological properties of P-BS-CM1, P-CM2, and their mixture were measured. The surface morphology of P-BS-CM1 and the mixture (P-BS-CM1 + P-CM2) was observed using scanning electron microscopy. Additionally, for the FRET assay, CM1-to-CM2 equimolar of P-BS-CM1-Cy5 and P-CM2-Cy3 were mixed in 10 mM PBS (pH 7.4) at 25 °C for 10 min. Fluorescent spectra of P-BS-CM1-Cy5, P-CM2-Cy3, and the mixture (P-BS-CM1-Cy5+P-CM2-Cy3) were recorded at the Cy3 excitation wavelength of 550 nm.

For series [2], the system named is orthotopic 4T1 breast tumors. The series can be described thus: Tumor accumulation of Cy5-labeled nanothreads (IVIS imaging, excised tumors). The class given is in vivo, female BALB/c mice. On the procedure:
For in vitro studies, 4T1 cells (2 × 10^5 cells) were seeded on coverslips (NEST Biotechnology) for attachment. Subsequently, the cells were treated with i) Cy5-labeled P-CM1 (P-CM1-Cy5) for 1 h, followed by incubation in cell culture medium for an additional 1 h, ii) Cy5-labeled P-BS-CM1 (P-BS-CM1-Cy5) for 1 h, followed by incubation in cell culture medium for an additional 1 h, or iii) P-BS-CM1-Cy5 for 1 h, followed by Cy3-labeled P-CM2 (P-CM2-Cy3) for an additional 1 h (5 nM Cy5 and 5 nM Cy3 equivalence), respectively. Following the treatments, cells were washed three times with PBS, stained with DAPI, and observed using a confocal microscope. For in vivo studies, 4T1 cells (1 × 10^6) were injected into the third mammary fat pad of female BALB/c mice (6–8 weeks, 20 ± 2 g) (n = 3) on day 0 to establish orthotopic breast tumor models. For investigation of CXCR4 binding, mice on day 14 (tumor volume, ~200 mm^3) were intravenously injected with P-CM1-Cy5 or P-BS-CM1-Cy5 (equivalent Cy5 dose, 5 nmol/mouse, n = 3). Whole-body living imaging at 24, 48, and 72 h post-administration as well as excised tumors at the end point, were captured using the IVIS optical imaging system (IVIS Lumina Series III, PerkinElmer, USA). For the analysis of CM1/CM2 biorecognition in the second step, 4T1 tumor-bearing mice (tumor volume, ~200 mm^3) were intravenously injected with Cy5 labeled P-CM2 (P-CM2-Cy5) alone on day 15, or pre-injected P-BS-CM1 on day 14 followed by intravenous injection of P-CM2-Cy5 on day 15 (equivalent Cy5 dose, 5 nmol/mouse, n = 3). Whole-body living imaging at 24 and 48 h post-P-CM2-Cy5 administration, as well as excised tumors at the end point, were captured using the IVIS optical imaging system. For further investigation, mice (tumor volume, ~200 mm^3) were intravenously injected with P-BS-CM1-Cy5 on day 14 and then P-CM2-Cy3 on day 15 (5 nmol of Cy5 and 5 nmol of Cy3 per mouse). One day later, tumor tissues were collected for frozen sectioning and further observation by confocal microscope.
(§2) Three distinct delivery approaches were implemented in 4T1 tumor-bearing female BALB/c mice (6–8-week, tumor volume~200 mm^3, n = 5 per group). i) Consecutive delivery: Nanothread-1 and nanothread-2 were sequentially administered via intravenously injection with a 24 h time interval. ii) Simultaneous delivery: Nanothread-1 and Nanothread-2 were concurrently administered through two tail veins of one mouse. iii) Post-assembly delivery: Nanothread-1 and Nanothread-2 were pre-mixed before intravenous injection (5 nmol of Cy5 and 5 nmol of Cy3 per mouse). For the tumor accumulation study, whole-body living imaging was conducted at 24, 48, and 72 h post-administration of Cy5-labeled Nanothread. Additionally, excised tumors were imaged at the end point using the IVIS optical imaging system. For the pharmacokinetics study, blood samples were extracted at predetermined time points post-administration of fluorescence-labeled Nanothread, n = 5 per group. The fluorescent intensity in blood samples was measured with a microplate reader at the wavelengths of Cy5 (Ex: 630 nm, Em: 670 nm) and Cy3 (Ex: 530 nm, Em: 570 nm). Pharmacokinetic parameters, including half-life (T1/2z), area under curve (AUC), and mean residence time (MRT), were calculated using DAS 2.0 software.

A short description of series [3]: Pharmacokinetics upon consecutive, simultaneous and post-assembly delivery. In kind it is in vivo, female BALB/c mice. The settings on record: for T1/2z: blood fluorescence, mean ± SD, n = 5; for AUC0-t / AUC0-∞ / MRT0-t / MRT0-∞: same. On the procedure: as §2

Ends that are not written are not given here. HPMA copolymer = HPMA copolymer made by RAFT copolymerization of HPMA with N-(3-aminopropyl)methacrylamide (APMA), bearing maleimide groups for grafting

In the series “ζ-potential (Zetasizer)”, “P-CM2-Cy5: Cy5 labeled P-CM2 (C(HPMA copolymer)YGGEVSALEKEVSALEKKNSALEKEVSALEKEVSALEK; also: Cy5 label on conjugate, position not given here)” yielded a ζ-potential of -8.94±0.45 mV. This molecule also displayed a Size in series [1] of 19.8±0.7 nm. In addition, the “tumor accumulation of Nanothread-2 (Fig. 5b, excised tumors)” value amounted to 1.72 in series [2] (P-CM2-Cy5 i.v. 5 nmol Cy5/mouse 24 h after saline or P-BS-CM1, IVIS at end point (48 h), animal 1 of 3); 0.962 in series [2] (P-CM2-Cy5 i.v. 5 nmol Cy5/mouse 24 h after saline or P-BS-CM1, IVIS at end point (48 h), animal 1 of 3, listed as G3); 1.74 in series [2] (same, animal 2 of 3); 0.787 in series [2] (same, animal 2 of 3, listed as G3); 1.49 in series [2] (same, animal 3 of 3); 0.495 in series [2] (same, animal 3 of 3, listed as G3). The T1/2z in series [3] (Consecutive delivery (24 h interval) with unlabeled partner nanothread, i.v., 4T1 tumor-bearing mice, 5 nmol Cy5/mouse, DAS 2.0) worked out at 20.232 ± 6.5 h; in series [3] (Post-assembly delivery (pre-mixed with unlabeled partner nanothread before i.v. injection)), 14.142 ± 3.54 h; in series [3] (Simultaneous delivery (two tail veins, 0 h) with unlabeled partner nanothread, i.v.) it was 17.583 ± 4.307 h. For the same molecule, the figures for the AUC0-t in series [3] (Consecutive delivery), in series [3] (Post-assembly delivery) and in series [3] (Simultaneous delivery) were 2.807529 ± 0.561373 µg·h/mL, 1.35651 ± 0.241624 µg·h/mL and 1.339808 ± 0.201879 µg·h/mL, respectively. The “AUC0-∞” value in series [3] (Consecutive delivery) amounted to 2.99946 ± 0.668451 µg·h/mL; in series [3] (Post-assembly delivery) it was 1.374981 ± 0.237509 µg·h/mL; in series [3] (Simultaneous delivery), 1.38553 ± 0.238655 µg·h/mL. The values for the MRT0-t in series [3] (Consecutive delivery), in series [3] (Post-assembly delivery) and in series [3] (Simultaneous delivery) were 15.196 ± 1.358 h, 8.789 ± 0.154 h and 9.919 ± 0.611 h, respectively. Moreover, the figures for the “MRT0-∞” value in series [3] (Consecutive delivery), in series [3] (Post-assembly delivery) and in series [3] (Simultaneous delivery) were 21.117 ± 3.236 h, 10.384 ± 0.829 h and 12.694 ± 2.736 h, respectively.

Turning to “P-CM2: HPMA copolymer-CM2 conjugate, ~12 CM2 grafts per polymer (C(HPMA copolymer)YGGEVSALEKEVSALEKKNSALEKEVSALEKEVSALEK; also: CM2 N-terminal cysteine joined to a maleimide of the HPMA copolymer backbone, ~12 per polymer)”, the ζ-potential in the series “ζ-potential (Zetasizer)” is recorded as -8.73±0.34 mV. This molecule yielded a Size in series [1] of 19.2±0.7 nm.

For “P-PS-CM2: HPMA backbone grafted with CM2 and chlorin e6 photosensitizer (C(HPMA copolymer)YGGEVSALEKEVSALEKKNSALEKEVSALEKEVSALEK; also: chlorin e6 photosensitizer on polymer)”, the ζ-potential in “ζ-potential (Zetasizer)” is recorded as -11.21±1.24 mV. This molecule also gave a Size in series [1] of 25.8±1.2 nm.

B1: P-BS-CM1: linear HPMA polymer backbone grafted with CXCR4 binding sequence (BS) and coiled motif CM1 (conjugate)
chain 1: LGASWHRPDKCCLGYQKRPLPA
chain 2: C(HPMA copolymer)YGGKVSALKEKVSALKEEVSANKEKVSALKEKVSALKE
modifications: not fully specified (some residues); also: BS cysteines (Cys11, Cys12) joined to maleimides of the HPMA copolymer backbone, ~6 per polymer, CM1 N-terminal cysteine joined to a maleimide of the HPMA copolymer backbone, ~4 per polymer
As to B1, the ζ-potential in the series “ζ-potential (Zetasizer)” is reported as -5.67±0.79 mV. Further, in series [1], the Size amounted to 17.5±2.1 nm.
